Test results as given in US20210130452A1 (Merck KGaA, published 2021).
Positions count from the first letter of the chain named. Names and notes keep the numbering of the source.

Key:
[1] = target: T1, human IL-17A (human, UniProt Q16552 24-155); assay: AlphaScreen IL-17A-IL-17RA, average
T1 construct: secreted form (GenBank U32659) expressed in Hek293 with C-terminal 6-His; also called hIL-17A; IL-17A-6HIS

[2] = target: T1, human IL-17A; assay: SPR
[3] = target: T2, human IL-17A/F heterodimer (human, UniProt Q16552 24-155; Q96PD4 31-163, limits assumed); assay: SPR
T2 construct: produced in E. coli, bought from R&D Systems (Cat 5194-IL/CF); also called hIL-17A/F
T2 sequence (Q16552 24-155 limits assumed, chain 1 of 2, one chain of several): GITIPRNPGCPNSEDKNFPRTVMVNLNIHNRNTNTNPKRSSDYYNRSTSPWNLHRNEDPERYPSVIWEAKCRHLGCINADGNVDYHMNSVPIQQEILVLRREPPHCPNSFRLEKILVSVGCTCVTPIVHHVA

[4] = target: T3, rat IL-17A (rat, UniProt Q61453 18-150, limits assumed); assay: ELISA, coated IL-17A
T3 sequence (looked up): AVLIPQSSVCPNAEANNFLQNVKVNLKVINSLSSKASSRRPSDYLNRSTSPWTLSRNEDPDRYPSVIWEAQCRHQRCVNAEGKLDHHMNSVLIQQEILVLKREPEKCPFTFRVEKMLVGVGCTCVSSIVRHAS
Experimental: (§1) Binding of a selected panel of anti-IL-17 Nanobodies to IL-17 of other species was assessed using a binding ELISA. […] HRP (horseradish peroxidase) conjugated anti-myc (Serotec, MCA 2200P) was used for detection using esTMB as substrate.

[5] = target: guinea pig IL-17A (guinea pig); assay: ELISA, coated IL-17A
Experimental: as §1

[6] = target: T4, marmoset IL-17A (marmoset, IL-17A is a disulfide-linked homodimer. One chain is given.); assay: ELISA, coated IL-17A
T4 chain: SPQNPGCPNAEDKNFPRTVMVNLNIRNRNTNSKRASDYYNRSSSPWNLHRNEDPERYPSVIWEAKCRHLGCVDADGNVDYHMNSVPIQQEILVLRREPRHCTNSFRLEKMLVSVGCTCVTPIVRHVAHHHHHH
Experimental: as §1

[7] = target: T1, human IL-17A; assay: ELISA, coated IL-17A
Experimental: as §1

[8] = target: T5, mouse IL-17A (mouse, UniProt Q62386 26-158); assay: ELISA, coated IL-17A
T5 sequence (looked up): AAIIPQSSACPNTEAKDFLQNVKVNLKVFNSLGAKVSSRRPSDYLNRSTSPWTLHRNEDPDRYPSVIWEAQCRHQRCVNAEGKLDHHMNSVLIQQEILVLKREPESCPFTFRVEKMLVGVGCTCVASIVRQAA
Experimental: as §1

[9] = target: T1, human IL-17A; assay: SPR, IL-17A-Nanobody complex over captured IL-17RA
Text: The receptor (IL-17RA or IL-17RC) was captured via its human Fc-tail by an anti-human IgG-Fc antibody coated on the chip.

[10] = target: T6, rat IL-17F (rat, UniProt Q5BJ95 29-161); assay: ELISA, coated IL-17F;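 note: binding ELISA on coated antigen from various species, with bound Nanobodies revealed by an HRP-linked anti-myc antibody and esTMB substrate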
T6 sequence (looked up): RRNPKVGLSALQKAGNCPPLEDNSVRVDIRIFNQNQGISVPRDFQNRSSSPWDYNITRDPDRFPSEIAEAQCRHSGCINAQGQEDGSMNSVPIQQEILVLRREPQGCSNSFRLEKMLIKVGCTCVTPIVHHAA
Experimental: as §1

[11] = target: T7, marmoset IL-17F (marmoset, UniProt A6N6I9 31-163); assay: ELISA, coated IL-17F;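 note: binding ELISA on coated antigen from various species, with bound Nanobodies revealed by an HRP-linked anti-myc antibody and esTMB substrate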
T7 sequence (looked up): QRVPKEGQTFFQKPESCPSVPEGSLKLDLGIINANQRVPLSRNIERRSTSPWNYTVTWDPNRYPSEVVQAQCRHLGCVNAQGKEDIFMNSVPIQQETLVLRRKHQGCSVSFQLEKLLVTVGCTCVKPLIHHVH
Experimental: as §1

[12] = target: T8, human IL-17F (human, UniProt Q96PD4 31-163); assay: ELISA, coated IL-17F;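 note: binding ELISA on coated antigen from various species, with bound Nanobodies revealed by an HRP-linked anti-myc antibody and esTMB substrate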
T8 construct: GenBank AF384857, expressed in Hek293 as 6-His C-terminal tagged protein; also called hIL-17F; IL-17F-6HIS
T8 sequence: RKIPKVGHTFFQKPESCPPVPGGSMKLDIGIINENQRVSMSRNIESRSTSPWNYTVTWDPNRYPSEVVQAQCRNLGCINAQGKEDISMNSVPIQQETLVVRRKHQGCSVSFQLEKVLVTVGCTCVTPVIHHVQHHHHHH
Experimental: as §1

[13] = target: T9, human IL-17A/F heterodimer (human, UniProt Q16552 24-155; Q96PD4 31-163, limits assumed, biotinylated with Sulfo-NHS-LC-Biotin in the AlphaScreen assays only); assay: AlphaScreen competition, hIL-17A/F - IL-17RA-Fc
T9 construct: also called hIL-17A/F
Target sequence in this assay (Q16552 24-155 limits assumed, one chain of several): as the sequence (Q16552 24-155 limits assumed, chain 1 of 2, one chain of several) above
Experimental: (§2) To this mixture, the IL-17RA or IL-17RC Fc-fusions, Acceptor beads and the streptavidin Donor beads were added and further incubated for 1 hour at RT.

[14] = target: T9, human IL-17A/F heterodimer; assay: AlphaScreen competition, hIL-17A/F - IL-17RC-Fc
Target sequence in this assay (Q16552 24-155 limits assumed, chain 1 of 2, one chain of several): as the sequence (Q16552 24-155 limits assumed, chain 1 of 2, one chain of several) above
Experimental: as §2

[15] = target: T9, human IL-17A/F heterodimer; assay: cell-based or functional assay
Target sequence in this assay (Q16552 24-155 limits assumed, chain 1 of 2, one chain of several): as the sequence (Q16552 24-155 limits assumed, chain 1 of 2, one chain of several) above

[16] = target: T10, human IL-17A (human, UniProt Q16552 24-155, biotinylated with Sulfo-NHS-LC-Biotin in the AlphaScreen assays only); assay: SPR Biacore, hIL-17A on chip; periplasmic extract (*); NB = no binding
T10 construct: also called hIL-17A; recombinant human IL-17A
T10 sequence (Q16552 other isoform, or with tags, fused parts or gaps): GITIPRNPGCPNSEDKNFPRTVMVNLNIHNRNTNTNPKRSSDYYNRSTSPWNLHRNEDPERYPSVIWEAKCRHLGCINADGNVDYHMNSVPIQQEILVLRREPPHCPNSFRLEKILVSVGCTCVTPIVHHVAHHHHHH
Experimental: (§3) Off-rates of the periplasmic extracts containing anti-IL-17 Nanobodies were measured by Surface Plasmon Resonance (SPR) using a Biacore T100 instrument. […] Periplasmic extracts containing IL-17 neutralizing Nanobodies were injected for 2 minutes at a flow rate of 45 μl/min to allow binding to chip-bound antigen. Next, binding buffer without periplasmic extracts was sent over the chip at the same flow rate to allow spontaneous dissociation of bound Nanobody. From the sensorgrams obtained for the different periplasmic extracts koff-values (k₄) were calculated.

[17] = target: T11, human IL-17F (human, UniProt Q96PD4 31-163, biotinylated with Sulfo-NHS-LC-Biotin in the AlphaScreen assays only); assay: cell-based or functional assay
T11 sequence: T8 sequence

[18] = target: T9, human IL-17A/F heterodimer; assay: SPR Biacore, hIL-17A/F on chip; purified protein
Target sequence in this assay (Q16552 24-155 limits assumed, chain 1 of 2, one chain of several): as the sequence (Q16552 24-155 limits assumed, chain 1 of 2, one chain of several) above

[19] = target: T11, human IL-17F; assay: AlphaScreen competition, hIL-17F - IL-17RC-Fc
Experimental: as §2

[20] = target: T11, human IL-17F; assay: AlphaScreen competition, hIL-17F - IL-17RA-Fc
Experimental: as §2

[21] = target: T12, human IL-17F (human, UniProt Q96PD4 31-163); assay: SPR (Biacore) off-rate
T12 construct: made in Hek293 cells (GenBank AF384857); also called hIL-17F; hIL17F
T12 sequence: T8 sequence

[22] = target: T13, human IL-17A/F heterodimer (human, UniProt Q16552 24-155; Q96PD4 31-163, limits assumed); assay: SPR (Biacore) off-rate
T13 construct: bought, made in E. coli (R&D Systems 5194-IL/CF); also called hIL-17A/F; hIL17A/F
T13 sequence (Q16552 24-155 limits assumed, chain 1 of 2, one chain of several): as above

[23] = target: T11, human IL-17F; assay: SPR Biacore, hIL-17F on chip; purified protein
Experimental: as §3

[24] = target: T14, mouse IL-17F (mouse, UniProt Q7TNI7 29-161); assay: ELISA, coated IL-17F;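 note: binding ELISA on coated antigen from various species, with bound Nanobodies revealed by an HRP-linked anti-myc antibody and esTMB substrate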
T14 sequence (looked up): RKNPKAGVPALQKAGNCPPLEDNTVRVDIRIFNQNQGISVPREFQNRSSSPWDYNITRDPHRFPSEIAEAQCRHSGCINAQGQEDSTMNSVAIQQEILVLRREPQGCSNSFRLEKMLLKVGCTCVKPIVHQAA
Experimental: as §1

T1 sequence (Q16552 other isoform, or with tags, fused parts or gaps): as the sequence (Q16552 other isoform, or with tags, fused parts or gaps) above

B1: IL17MS3010 (VHH, name in Kabat numbering)
VHH: EVQLVESGGGLVQPGGSQRLSCTASGTIVNIHVMGWYRQAPGKQRELVALIFSGGSADYADSVKGRFTISRDNSKNTVYLQMNSLRAEDTAVYYCAAEIGYYSGGTYYSSEAHWGQGTLVTVSS
notes: also called IL17MS3010 basic
IC50 [1]: 0.184 nM | koff [2]: 0.00013 s⁻¹ | koff [3]: 0.000217 s⁻¹

B2: IL17MS3011 (VHH, name in Kabat numbering)
VHH: B1 VHH with Q18L
notes: basic + Q18L; Kabat positions
IC50 [1]: 0.139 nM | koff [2]: 0.000132 s⁻¹ | koff [3]: 0.000223 s⁻¹

B3: 09G10 (VHH)
VHH: EVQLVESGGGLVQAGGSLRLSCAASDSVFTAKAVGWYRQPPGLQREWVAIITSGGKTNYADSSVKGRFTVSVDKVKNTVTLQMNSLKPEDTAVYYCYAQWMGRDYWGQGTQVTVSS
notes: Class 2
OD [4]: 0.003 OD | OD [5]: 0.006 OD | OD [6]: 1.58 OD | OD [7]: 1.64 OD | OD [8]: -0.001 OD | % Biacore binding (IL-17A-NB)-IL-17RA [9]: 2.05% | OD [10]: 0.0025 OD | OD [11]: 0.0045 OD | OD [12]: -0.018 OD

B4: 12A09 (VHH)
VHH: EVQLVESGGGLVQPGGSLRLSCAASGFTFSSYRMAWVRQAPGKGLEWVSSTSTGGEMTNYADSVKGRFTISRDNAKNTLHLQMNSLKPEDTALYYCAAGTSAGHWSTGGQGTQVTVSS
notes: Class 3 Nanobody (anti-IL-17F); not shown: c-myc, His6 tag
IC50 [13]: > 250 nM | IC50 [14]: 33.2 nM | IL-17A/F-induced IL-6 production in HT-1080 cells, Emax [15]: 41.5% | IL-17A/F-induced IL-6 production in HT-1080 cells, IC50 [15]: 100 nM | binding result [16]: no binding | IL-17F-induced IL-6 production in HT-1080 cells, Emax [17]: 91% | IL-17F-induced IL-6 production in HT-1080 cells, IC50 [17]: 105 nM | koff [18]: 0.017 s⁻¹ | IC50 [19]: 0.612 nM | IC50 [20]: 1.84 nM

B5: IL17MS3056 (VHH)
VHH: EVQLVESGGGLVQPGGSLRLSCAASGRTFSSYVVGWFRQAPGKEREFVGAISGSGDSIYYAVSEKDRFTISRDNSKNTLYLQMSSLRAEDTAVYYCTADQEFGYLRFGRSEYWGQGTLVTVSS
notes: variant of IL17MS16A04; Kabat numbering
koff [21]: 0.000514 s⁻¹ | koff [22]: 0.00288 s⁻¹

B6: IL17MS3055 (VHH)
VHH: B5 VHH with V48I, D66G, S75G, S84N
koff [21]: 0.000493 s⁻¹ | koff [22]: 0.00332 s⁻¹

B7: IL17MS3054 (VHH)
VHH: B5 VHH with V48I, A88P
notes: as for B5
koff [21]: 0.000459 s⁻¹ | koff [22]: 0.00308 s⁻¹

B8: 04B09 (VHH)
VHH: EVQLVESGGGLVQPGGSLRLSCAASGFTLGYYAIGWFRQAPGKEREGVSCDSSSDGDTYYANSVKGRFTISTDNGKNTVYLQMNSLKPEDTAVYYCATCTDWNYDYWGQGTQVTVSS
notes: Class 2
OD [4]: 0.001 OD | OD [5]: 0.006 OD | OD [8]: 0 OD | OD [10]: 0.0015 OD | OD [11]: 0.0025 OD | OD [12]: -0.015 OD

B9: 07B11 (VHH)
VHH: EVQLVESGGGLVQAGGSLRLSCVASGRAFSSYVMGWFRQAPGMEREFVALIRWSDGITGYVDSVKGRFTISRDNAKNTVYLQMNSLKPEDTAVYYCAAAVRPGDYDYWGQGTQVTVSS
notes: as for B4
binding result [16]: no binding

B10: 24B08 (VHH)
VHH: EVQLVESGGGLVQAGGSLRLSCAVSGGTFSTYKMGWFRQAPGKEREIVARISTNGPTAYAEFVKGRFTVSRENTKNTVYLQMNSLNIEDTAVYYCAAGYDSLFAGYDYWGQGTQVTVSS
notes: as for B4
binding result [16]: no binding

B11: 08A08 (VHH)
VHH: EVQLVESGGGLVQAGGSLRLSCAASGRTFRPYRMGWFRRAPGKAREFVTLISWSSGRTSYADSVKGRFTISRDSAKNAVYLQMDNLKPEDTAVYFCAVDLSGDAVYDSWGQGTQVTVSS
notes: as for B4
IC50 [14]: 19.7 nM | binding result [16]: no binding | IL-17F-induced IL-6 production in HT-1080 cells, Emax [17]: 62% | IL-17F-induced IL-6 production in HT-1080 cells, IC50 [17]: 206 nM | koff [18]: 0.0079 s⁻¹ | IC50 [19]: 1.3 nM | koff [23]: 0.048 s⁻¹ | IC50 [20]: 3.84 nM

B12: 08B07 (VHH)
VHH: EVQLVESGGGLVQPGGSLRLSCAASGRDFRVKNVGWIRQAPGKQRELVATITVGGSTNYADSAKGRFTISRDNAKNTVYLQMSSLKPEDTAVYYCNAVATVTDYTGTYSDGFWGQGTQVTVSS
notes: as for B4
binding result [16]: no binding

B13: 11A06 (VHH)
VHH: EVQLVESGGGLVQPGESLRLSCKASGFSLDYYALGWFRQAPGKEREGISCITSSDASAYYTDSVKGRFTISRDNSKNTVYLQMNSLKTEDTAIYYCAAALLTCSSYYDAYTYWGQGTQVTVSS
notes: Class 2
OD [4]: 0.008 OD | OD [5]: 0.007 OD | OD [6]: 1.71 OD | OD [7]: 1.69 OD | OD [8]: 0.004 OD | % Biacore binding (IL-17A-NB)-IL-17RA [9]: -0.35% | OD [10]: 0.0045 OD | OD [11]: 0.0225 OD | OD [12]: 0.673 OD | OD [24]: 0.0455 OD

B14: 07B09 (VHH)
VHH: EVQLVESGGGLVQAGGSLRLSCGASGGTFSSYATGWFRQAPGKEREFVAVLRWSDGHTAYADSVKGRFTISRDGAKNTMYLQMSSLKPEDTAIYYCTTATRPGEWDYWGQGTQVTVSS
notes: as for B4
binding result [16]: no binding

B15: 24G10 (VHH)
VHH: B14 VHH with S25A, L51F, G56S, M79L
notes: as for B4
binding result [16]: no binding
